The results in this text go back to PMC9098466, “Substrate recognition and cryo-EM structure of the ribosome-bound TAC toxin of Mycobacterium tuberculosis” (Nature Communications, 2022).

The target in the experiment is ribosomal protein uS13 of the E. coli 70S ribosome (E. coli (endogenous in MG1655), UniProt P0A7S9 1-118). Put plainly: cryo-EM structure. As to conditions: both partners purified.

B1: HigB^TAC[K95A] toxin of Mycobacterium tuberculosis (enzyme)
chain: MPPPDPAAMGTWKFFRASVDGRPVFKKEFDKLPDQARAALIVLMQRYLVGDLAAGSIKPIRGDILELRWHEANNHFRVLFFRWGQHPVALTAFYANQQKTPKTKIETALDRQKIWKRAFGDTPPI
notes: also called HigB1
For the molecule B1, the binding result was “binds”.
